According to publication doi:10.1101/2025.04.23.649697, “Biomass-derived Lignin Nanoparticles for the Sustained Delivery of Vascular Endothelial Growth Factor-C” (bioRxiv, 2025):

Target: the molecule itself
Assay: SEC; HiLoad 26/600 Superdex 200 pg in PBS, after IMAC; peaks identified using BSA as a molecular weight marker

B1: mature Vascular Endothelial Growth Factor C (dNdC-hVEGF-C-H6) (ligand, human, UniProt P49767 112-227, looked up)
chain: AHYNTEILKSIDNEWRKTQCMPREVCIDVGKEFGVATNTFFKPPCVSVYRCGGCCNSEGLQCMNTSTSYLSKTLFEITVPLSQGPKPVTISFANHTSCRCMSKLDVYRQVHSIIRR
notes: VEGF-C, human, dNdC form (called mature VEGFC); secreted with the BiP signal peptide of the vector pMT-Ex; SEC gave dimeric and monomeric species; The dimeric peak was collected and used for nanoparticle loading and the bioassays; also called mature VEGFC; purified mature VEGFC; not shown: His6 (H6 in the construct's name)
stoichiometry N: 2
